Measured values published in US20250051731A1, “COMPOSITIONS AND METHODS FOR ESTABLISHMENT OF BOVINE-INDUCED PLURIPOTENT STEM CELLS” (University of Connecticut, priority 2021, published 2025).

Columns and labels:
[1] = test system: H3K9me2; assay: Immunostaining of H3K9me2 in bMSCs; assay type: cell-based, bovine; conditions: bMSCs overexpressing human KDM4A vs vector control
Protocol: (§1) Immunostaining: For immunofluorescence, the cells were first fixed in 4% PFA for 15 min at room temperature. Following fixation, the cells were treated with 0.5% Triton X-100 in PBS for 15 min at room temperature for cell membrane permeabilization. After blocking with goat serum (Cell Signaling Technology, Danvers, MA, USA), the cells were incubated in goat serum containing primary antibodies for 2 h at 37° C., followed by secondary antibodies at room temperature for 1 h. Cells were counter-stained with DAPI and imaged under a Nikon fluorescence microscope. Primary antibodies including rabbit anti-OCT4 (Santa Cruz, CA, USA), rabbit anti-SOX2 (Merck Millipore), and mouse anti-NANOG (Merck Millipore) were used at 1:100 dilution while mouse anti-AFP (1:50; Cloud-clone Corp., TX, USA), rabbit anti-TUJ1 (1:500) and mouse anti-SMA (1:400) (Thermo Fisher Scientific) were diluted variously according to their manufacturer's instructions. Alexa Fluor 488 or 594 conjugated goat anti-rabbit or goat anti-mouse secondary antibody (Cell Signaling Technology) were used in 1:1000 dilution. For cell surface marker staining, the cells in different reprogramming conditions were stained with NL557-conjugated TRA-1-60 (1:100), SSEA-3 (1:50; R&D Systems, Minneapolis, MN, USA) and Alexa Fluor 594 conjugated SSEA-4 (1:100; BioLegend, San Diego, CA, USA) according to the manufacturer's protocol.

[2] = test system: H3K9me3; assay: Immunostaining of H3K9me3 in bMSCs; assay type: cell-based, bovine; conditions: bMSCs overexpressing human KDM4A vs retroviral vector control
Protocol: as §1

B1: KDM4A: human lysine-specific demethylase 4A overexpressed in bMSCs from pMXs retroviral vector (protein, UniProt O75164 2-1064, looked up)
Lysine-specific demethylase 4A: ASESETLNPSARIMTFYPTMEEFRNFSRYIAYIESQGAHRAGLAKVVPPKEWKPRASYDDIDDLVIPAPIQQLVTGQSGLFTQYNIQKKAMTVREFRKIANSDKYCTPRYSEFEELERKYWKNLTFNPPIYGADVNGTLYEKHVDEWNIGRLRTILDLVEKESGITIEGVNTPYLYFGMWKTSFAWHTEDMDLYSINYLHFGEPKSWYSVPPEHGKRLERLAKGFFPGSAQSCEAFLRHKMTLISPLMLKKYGIPFDKVTQEAGEFMITFPYGYHAGFNHGFNCAESTNFATRRWIEYGKQAVLCSCRKDMVKISMDVFVRKFQPERYKLWKAGKDNTVIDHTLPTPEAAEFLKESELPPRAGNEEECPEEDMEGVEDGEEGDLKTSLAKHRIGTKRHRVCLEIPQEVSQSELFPKEDLSSEQYEMTECPAALAPVRPTHSSVRQVEDGLTFPDYSDSTEVKFEELKNVKLEEEDEEEEQAAAALDLSVNPASVGGRLVFSGSKKKSSSSLGSGSSRDSISSDSETSEPLSCRAQGQTGVLTVHSYAKGDGRVTVGEPCTRKKGSAARSFSERELAEVADEYMFSLEENKKSKGRRQPLSKLPRHHPLVLQECVSDDETSEQLTPEEEAEETEAWAKPLSQLWQNRPPNFEAEKEFNETMAQQAPHCAVCMIFQTYHQVEFGGFNQNCGNASDLAPQKQRTKPLIPEMCFTSTGCSTDINLSTPYLEEDGTSILVSCKKCSVRVHASCYGVPPAKASEDWMCSRCSANALEEDCCLCSLRGGALQRANDDRWVHVSCAVAILEARFVNIAERSPVDVSKIPLPRFKLKCIFCKKRRKRTAGCCVQCSHGRCPTAFHVSCAQAAGVMMQPDDWPFVVFITCFRHKIPNLERAKGALQSITAGQKVISKHKNGRFYQCEVVRLTTETFYEVNFDDGSFSDNLYPEDIVSQDCLQFGPPAEGEVVQVRWTDGQVYGAKFVASHPIQMYQVEFEDGSQLVVKRDDVYTLDEELPKRVKSRLSVASDMRFNEIFTEKEVKQEKKRQRVINSRYREDYIEPALYRAIME
[1]
  H3K9me2 by immunostaining: not
[2]
  H3K9me3 by immunostaining: reduced
